This is an account of results in PMC3206016, “Putting into Practice Domain-Linear Motif Interaction Predictions for Exploration of Protein Networks” (PLoS ONE, 2011).

B8: SCRIB-3/4 (MBP fusion of the third of the four PDZ domains of SCRIB) (domain or fragment)
chain: EGPYPVEEIRLPRAGGPLGLSIVGGSDHSSHPFGVQEPGVFISKVLPRGLAARSGLRVGDRILAVNGQDVRDATHQEAVSALLRPCLELSLLVRRDP
notes: also called MBP-PDZ analyte SCRIB-3/4; source: E. coli BL21 DE3, purified (amylose column, Superdex 75 gel filtration)

Holding throughout (assay): SPR
What all share (conditions): both partners purified

For assay [1], the target named is T1, MAGI1-3/6 (MBP fusion of the third of the six PDZ domains of MAGI1) (mouse, UniProt Q6RHR9-1 613-752).
T1 construct: source: E. coli BL21 DE3, purified (amylose column, Superdex 75 gel filtration)
T1 sequence (Q6RHR9 613-752): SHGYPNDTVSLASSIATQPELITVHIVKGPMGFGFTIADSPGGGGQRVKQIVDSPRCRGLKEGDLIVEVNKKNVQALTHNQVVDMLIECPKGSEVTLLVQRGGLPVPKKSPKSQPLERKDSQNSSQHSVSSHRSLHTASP

Assay [2] deals with B8.
Assay [3] concerns the target T2, SCRIB-34/4 (MBP fusion of the tandem of the third and fourth PDZ domains of SCRIB) (human, UniProt Q14160-1 997-1193).
T2 construct: also called MBP-PDZ analyte SCRIB-34/4; tandem PDZ construct; source: E. coli BL21 DE3, purified (amylose column, Superdex 75 gel filtration)
T2 sequence (looked up): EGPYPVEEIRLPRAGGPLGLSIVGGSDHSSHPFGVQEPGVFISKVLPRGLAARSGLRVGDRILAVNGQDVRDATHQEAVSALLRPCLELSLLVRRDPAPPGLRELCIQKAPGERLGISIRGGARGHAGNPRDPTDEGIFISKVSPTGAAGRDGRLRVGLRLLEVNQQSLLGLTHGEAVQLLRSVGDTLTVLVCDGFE

Assay [4] has as its target T3, MAGI1-2/6 (MBP fusion of the second of the six PDZ domains of MAGI1) (mouse, UniProt Q6RHR9-1 448-572).
T3 construct: source: E. coli BL21 DE3, purified (amylose column, Superdex 75 gel filtration)

Assay [5] deals with T1, MAGI1-3/6 (MBP fusion of the third of …). The source holds these as a separate data set.
Assay [6] has as its target B8. This is another data set of the same source.
The target in assay [7] is T2, SCRIB-34/4 (MBP fusion of the tandem of …). The source holds these as a separate data set.
Assay [8] addresses T3, MAGI1-2/6 (MBP fusion of the second of …). This is another data set of the same source.
Assay [9] deals with B8. This is another data set of the same source.
For assay [10], the target named is T2, SCRIB-34/4 (MBP fusion of the tandem of …). The source holds these as a separate data set.
The target of assay [11] is B8. This is another data set of the same source.
Assay [12] has as its target T2, SCRIB-34/4 (MBP fusion of the tandem of …). The source holds these as a separate data set.
The target in assay [13] is T1, MAGI1-3/6 (MBP fusion of the third of …). The source holds these as a separate data set.
For assay [14], the target named is T4, SCRIB-4/4 (MBP fusion of the fourth of the four PDZ domains of SCRIB) (human, UniProt Q14160-1 1097-1193).
T4 construct: also called MBP-PDZ analyte SCRIB-4/4; source: E. coli BL21 DE3, purified (amylose column, Superdex 75 gel filtration)
T4 sequence (looked up): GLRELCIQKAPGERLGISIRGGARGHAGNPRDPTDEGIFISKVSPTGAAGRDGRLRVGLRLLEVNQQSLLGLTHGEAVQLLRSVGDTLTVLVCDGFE

Assay [15] has as its target T5, 16E6_05 (short peptide of HPV16 early protein E6: GSGAG and the last five residues) (human papilloma virus 16, biotin at N-terminus).
T5 construct: also called 16E6 short; source: synthetic peptide (JPT Peptide Technologies)

Assay [16] concerns the target T6, TAX1_05 (short peptide of the Trans-activating transcriptional regulatory protein of HTLV-1: GSGAG a (HTLV-1A, biotin at N-terminus)).
T6 construct: source: synthetic peptide (JPT Peptide Technologies)

Several values for one entry are separate records, joined by “and”; a condition that tells them apart may be missing. Equal entries are not always repeated. Ends that are not written are not given here. * marks the point of attachment. Biotin = O=C1N[C@H]2[C@H](CS[C@H]2CCCCC(=O)*)N1

T3 sequence (Q6RHR9 448-572): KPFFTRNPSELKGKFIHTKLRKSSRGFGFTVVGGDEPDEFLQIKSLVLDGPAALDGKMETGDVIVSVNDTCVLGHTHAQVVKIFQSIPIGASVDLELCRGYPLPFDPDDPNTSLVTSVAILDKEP

B1: MAS_10 (long peptide of Proto-oncogene Mas: the last ten residues) (peptide)
peptide: Biotin-CNTVTVETVV
notes: also called MAS long; source: synthetic peptide (JPT Peptide Technologies)
Broadly, the Kd is the concentration at which binding is half-saturated. A high value points to weaker binding. On to B1, for which the Kd amounted to 123 µM in [1], 73 µM in assay [2] and 3 µM in [3].

B2: CYSLTR2_05 (short peptide of Cysteinyl leukotriene receptor 2: GSGAG and the last five residues) (peptide)
peptide: Biotin-GSGAGKETRV
notes: also called CYSLTR2 short; source: synthetic peptide (JPT Peptide Technologies)
Consider B2, for which the Kd in assay [4] turned out to be 30 µM; in assay [1], 21 µM; in assay [2] it was 103 µM; in assay [3], 10 µM.

B3: TTC24_10 (long peptide of Tetratricopeptide repeat protein 24: the last ten residues) (peptide)
peptide: Biotin-PMESGICTIV
notes: also called TTC24 long; source: synthetic peptide (JPT Peptide Technologies)
For the molecule B3, the Kd was 37 µM in [5], 117 µM in assay [6] and 49 µM in [7].

B4: 16E6 (long peptide of HPV16 early protein E6: the last ten residues) (peptide)
peptide: Biotin-SSRTRRETQL
notes: source: synthetic peptide (JPT Peptide Technologies)
As for B4, the Kd in assay [8] was 3 µM and 9 µM; in assay [9], 18 µM; in assay [10], 3 µM; in [11], 15 µM; in assay [12], 3 µM.

B5: TTC24_05 (short peptide of Tetratricopeptide repeat protein 24: GSGAG and the last five residues) (peptide)
peptide: Biotin-GSGAGICTIV
notes: also called TTC24 short; source: synthetic peptide (JPT Peptide Technologies)
For B5, the Kd in assay [4] turned out to be 65 µM; in assay [1] it was 34 µM; in assay [2], 239 µM; in assay [3] it was 25 µM.

B6: TANC1_10 (long peptide of Tetratricopeptide repeat, ankyrin repeat and coiled-coil domain-containing protein 1: the last ten residues) (peptide)
peptide: Biotin-PKRSFIESNV
notes: also called TANC1 long; source: synthetic peptide (JPT Peptide Technologies)
For B6, the Kd came to 287 µM in assay [8], 39 µM in assay [9] and 2 µM in assay [10].

B7: TAX1_10 (long peptide of the Trans-activating transcriptional regulatory protein of HTLV-1: the last ten residues) (peptide)
peptide: Biotin-SEKHFRETEV
notes: also called TAX1 long; HTLV1 Tax1; source: synthetic peptide (JPT Peptide Technologies)
As to B7, the Kd was found to be 53 µM in [8], 1230 µM in assay [13], 29 µM in [9] and 48 µM in assay [14].
Consider B8, for which the Kd in [15] turned out to be 12 µM; in assay [16], 96 µM.
